This series deals with Bad (bacterial DNA2-like helicase-nuclease), wild type (Geobacillus stearothermophilus 10 (DSM 13240)). In words: ATPase stimulation titration. The following applies: saturating ATP; Buffers of the ATPase and tweezers assays not given in the material; tweezers at room temperature, low free Mg2+; helicase assays 20 mM Tris-HCl pH 7.5, 2 mM ….

Regarding CAAGCGGGCGCCTCCCG [ODN1 (17mer ssDNA)], the K half (uM nucleotides) was found to be 1.6.

Source of the values: PMC7430649.
